Experiments:
[1] = biological target: T1, Ku protein (Ku70/Ku80 heterodimer) (Homo sapiens, UniProt P12956;P13010 P12956:2-609,P13010:2-732); experiment: EMSA; details: tags: none, purified from HeLa cell nuclear extracts
[2] = biological target: DNA-PK (Ku protein + DNA-PKcs) (Homo sapiens, UniProt P12956;P13010;P78527 P12956:2-609,P13010:2-732,P78527:1-4128); experiment: inhibition; DNA-PK kinase inhibition class A at 16-32 nM RNA; details: tags: none, both purified from HeLa cell nuclear extracts
[3] = biological target: T1, Ku protein (Ku70/Ku80 heterodimer); experiment: EMSA; 5 mM MgCl2; details: tags: none, purified from HeLa cell nuclear extracts
[4] = biological target: T1, Ku protein (Ku70/Ku80 heterodimer); experiment: EMSA; printed as SCI; details: tags: none, purified from HeLa cell nuclear extracts
[5] = biological target: T1, Ku protein (Ku70/Ku80 heterodimer); experiment: EMSA; binding comparable to round 6 RNA (about 0.3 nM); details: tags: none, purified from HeLa cell nuclear extracts; label: 5'-32P
Source text: Binding curves were obtained with EMSA followed by a nonlinear least squares fit of the data. […] A twenty-one base pair double-stranded DNA was end-labeled with T4 polynucleotide kinase.

T1 sequence (P12956 2-609, chain 1 of 2): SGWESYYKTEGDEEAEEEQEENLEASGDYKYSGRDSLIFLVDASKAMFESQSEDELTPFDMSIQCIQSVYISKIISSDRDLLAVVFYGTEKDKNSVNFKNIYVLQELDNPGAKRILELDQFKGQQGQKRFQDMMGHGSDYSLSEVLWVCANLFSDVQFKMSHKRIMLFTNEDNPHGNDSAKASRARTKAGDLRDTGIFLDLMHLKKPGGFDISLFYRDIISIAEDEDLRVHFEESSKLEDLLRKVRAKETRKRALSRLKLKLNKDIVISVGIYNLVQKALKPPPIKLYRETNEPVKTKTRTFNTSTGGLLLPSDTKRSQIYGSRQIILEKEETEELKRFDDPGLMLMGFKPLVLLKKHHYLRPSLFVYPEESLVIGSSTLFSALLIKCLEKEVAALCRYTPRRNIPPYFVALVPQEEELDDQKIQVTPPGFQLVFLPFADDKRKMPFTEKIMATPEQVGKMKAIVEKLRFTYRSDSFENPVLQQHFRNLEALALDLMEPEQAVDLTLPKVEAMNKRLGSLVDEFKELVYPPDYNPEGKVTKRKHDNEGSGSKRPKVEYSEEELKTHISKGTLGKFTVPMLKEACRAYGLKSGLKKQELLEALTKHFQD
T1 sequence (P13010 2-732, chain 2 of 2): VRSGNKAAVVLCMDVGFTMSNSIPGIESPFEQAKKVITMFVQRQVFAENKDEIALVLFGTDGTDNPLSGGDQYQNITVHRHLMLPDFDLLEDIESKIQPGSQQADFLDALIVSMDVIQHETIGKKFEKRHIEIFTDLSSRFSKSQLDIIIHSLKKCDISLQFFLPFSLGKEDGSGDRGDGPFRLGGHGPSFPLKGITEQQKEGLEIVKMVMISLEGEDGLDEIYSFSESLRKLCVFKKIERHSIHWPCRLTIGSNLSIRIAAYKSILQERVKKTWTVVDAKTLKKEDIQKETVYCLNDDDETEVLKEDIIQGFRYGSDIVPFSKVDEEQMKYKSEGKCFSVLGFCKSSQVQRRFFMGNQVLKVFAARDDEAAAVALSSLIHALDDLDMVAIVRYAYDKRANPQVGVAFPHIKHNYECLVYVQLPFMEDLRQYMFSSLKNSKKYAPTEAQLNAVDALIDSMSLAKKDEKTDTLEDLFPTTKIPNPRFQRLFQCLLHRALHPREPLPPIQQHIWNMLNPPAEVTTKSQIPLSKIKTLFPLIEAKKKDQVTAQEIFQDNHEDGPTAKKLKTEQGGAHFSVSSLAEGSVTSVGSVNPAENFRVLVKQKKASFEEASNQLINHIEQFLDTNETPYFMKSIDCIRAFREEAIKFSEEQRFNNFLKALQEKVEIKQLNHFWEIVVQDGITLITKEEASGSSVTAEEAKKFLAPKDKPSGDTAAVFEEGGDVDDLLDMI

Row | Binder | Kd [1] [nM] | activity [2] [% inhibition] | other results
1 | #85 (ssRNA) RNA: GGGAGGAUAUUUUCUCAGACCGUAACAAGUAUCACGCACUUUCCCAUUCACUGUUAGAGACUGAUUGCAGCAUCGUGAACUAGGAUC | 0.7 | – | –
2 | #7-3 (ssRNA) RNA: GGGAGGAUAUUUUCUCAGACCGUAAAGGUCGGCAUACAGAGUUCCGAAUGCGCGUAACUUCGACUUUGCAGCAUCGUGAACUAGGAUC | 1.8 | ≥ 85 | –
3 | SC2 (ssRNA) RNA: GGGAGGAUAUUUUCUCAGACCGUAACACGCUCUACAACAGAUUGCGAAUUAACUUACGCUUCAUAUUGCAGCAUCGUGAACUAGGAUC | 0.8 | ≥ 85 | –
4 | #1-17 (ssRNA) RNA: GGGAGGAUAUUUUCUCAGACCGUAAUCCUUAUUUUAUGGCUUUCCCACGCACACAAGCGUCUGCGUUGCAGCAUCGUGAACUAGGAUC | 3.2 | – | –
5 | #84 (ssRNA) RNA: GGGAGGAUAUUUUCUCAGACCGUAAAUCCGCGUACCGGGCUCAAAUGUCACUAUAGUAGAAAGCAUUGCAGCAUCGUGAACUAGGAUC | 1.8 | – | –
6 | #52 (ssRNA) RNA: GGGAGGAUAUUUUCUCAGACCGUAACUGAUCGUUCAAUGACUAUUCUUUACCUUGAGUAACCGAUUGCAGCAUCGUGAACUAGGAUC | 3.2 | – | –
7 | SC5 (ssRNA) RNA: GGGAGGAUAUUUUCUCAGACCGUAACUUGAACAUGAUAGGCUUACCCAUAGACAGAUUGACCCUUUUGCAGCAUCGUGAACUAGGAUC | 2 | ≥ 85 | –
8 | SC6 (ssRNA) RNA: GGGAGGAUAUUUUCUCAGACCGUAAGACUCACGAUGGACCAUACGCCUUCCCACUGGUCUUGUUAUUGCAGCAUCGUGAACUAGGAUC | 2 | – | –
9 | SC11 (ssRNA) RNA: GGGAGGAUAUUUUCUCAGACCGUAACUUAGUUUCGAUCGAAGCUCAUUGGCCCAGCGUGGAUAACUUGCAGCAUCGUGAACUAGGAUC | > 10 | – | –
10 | SC12 (ssRNA) RNA: GGGAGGAUAUUUUCUCAGACCGUAACUCGCAACAUGACUUCGAAAGUUUAAUCGUUCUUGUCAAUUGCAGCAUCGUGAACUAGGAUC | 0.5 | – | –
11 | #1-2 (ssRNA) RNA: GGGAGGAUAUUUUCUCAGACCGUAACAACACCUUGCUUUCCCAAUACCCUGAAAUACAGUCGGAUUUGCAGCAUCGUGAACUAGGAUC | 1.5 | ≥ 85 | –
12 | #2 (ssRNA) RNA: GGGAGGAUAUUUUCUCAGACCGUAAGCCUAUGCACGGAGCUUUCCCAGCUACAGAUGAAACCAGCUUGCAGCAUCGUGAACUAGGAUC | – | ≥ 85 | Kd [3]: 0.3 nM
13 | SC4 (ssRNA) RNA: GGGAGGAUAUUUUCUCAGACCGUAACCUAGUCUAAUCGAGGCUUUCCCAGUGACAAUGACCCACUUGCAGCAUCGUGAACUAGGAUC | 1.7 | – | –
14 | SC9 (ssRNA) RNA: GGGAGGAUAUUUUCUCAGACCGUAAUGCCUUUAGCUGCGACAAUGAACAGCAUGACCUCACUACUUGCAGCAUCGUGAACUAGGAUC | 0.6 | – | –
15 | #42 (ssRNA) RNA: GGGAGGAUAUUUUCUCAGACCGUAACAUCCUGGUACUCACUUCGACAUCGUACGUUCAAUCAUACUUGCAGCAUCGUGAACUAGGAUC | 4.5 | – | –
16 | SC1 (ssRNA) RNA: GGGAGGAUAUUUUCUCAGACCGUAAUUGUUCAACCUUGUCUAACAUGAUACCGAUACGGACUACAUUGCAGCAUCGUGAACUAGGAUC | – | – | Kd [4]: 1.2 nM
17 | SC3 (ssRNA) RNA: GGGAGGAUAUUUUCUCAGACCGUAACAUUACCACAGUUCUAGCAUCCCGCAAUGGUAAGUCCGCAUUGCAGCAUCGUGAACUAGGAUC | 0.8 | – | –
18 | SC8 (ssRNA) RNA: GGGAGGAUAUUUUCUCAGACCGUAAGUCCUUCACUAAUGCUUACCAGACACACUAAGAACGUCACUUGCAGCAUCGUGAACUAGGAUC | 0.6 | ≥ 85 | –
19 | 21 bp double-stranded DNA (dsDNA) DNA 1: CTCAGGCGTTGACGACAACCC DNA 2: GGGTTGTCGTCAACGCCTGAG | – | – | binding result [5]: binds
20 | SC13 (ssRNA) RNA: GGGAGGAUAUUUUCUCAGACCGUAAACCUUUUUAGACGAACCUCAAAGUACAUUUAGUUGAAAACUUGCAGCAUCGUGAACUAGGAUC | 0.8 | – | –

From patent US6441158, “Oligomers that bind to ku protein” (Medical College of Georgia Research Institute, Inc.)
